Data on nine molecules can be found in PMC3411106, “Structural analysis of the human SYCE2–TEX12 complex provides molecular insights into synaptonemal complex assembly” (Open Biology, 2012).

Sequences and labels used below:
T1: MBP–SYCE2 (1–218) (human, UniProt Q6PIF2 1-218)
T1 construct: Tetramer by SEC–MALS; also called full-length SYCE2; source: E. coli Rosetta 2 (DE3); co-expressed (pRSFDuet-1), in clarified lysate for the pull-down; individually expressed, purified on amylose resin for SEC–MALS; not shown: MBP, N-terminal, kept
T1 sequence (looked up): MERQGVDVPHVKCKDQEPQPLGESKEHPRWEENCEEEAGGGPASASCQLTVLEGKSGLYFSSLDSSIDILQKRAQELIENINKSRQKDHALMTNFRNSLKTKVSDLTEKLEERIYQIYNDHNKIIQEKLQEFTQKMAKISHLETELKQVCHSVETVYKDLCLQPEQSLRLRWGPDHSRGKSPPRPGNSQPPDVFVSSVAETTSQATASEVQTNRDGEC

T2: MBP–SYCE2_(57–88) (human, UniProt Q6PIF2 57-88)
T2 construct: human SYCE2, residues 57–88 (α1 region); Monomer by SEC–MALS; also called α1 region of SYCE2; source: E. coli Rosetta 2 (DE3); co-expressed (pRSFDuet-1), in clarified lysate for the pull-down; individually expressed, purified on amylose resin for SEC–MALS; not shown: MBP, N-terminal, kept
T2 chain (looked up): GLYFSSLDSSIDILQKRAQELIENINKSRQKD

B1: MBP-TEX12_(24–123) (domain or fragment, human, UniProt Q9BXU0 24-123, looked up)
chain: VPDSPQLSSLGKSDSSFSEISGLFYKDEALEKDLNDVSKEINLMLSTYAKLLSERAAVDASYIDEIDELFKEANAIENFLIQKREFLRQRFTVIANTLHR
notes: Dimer by SEC–MALS; source: E. coli Rosetta 2 (DE3), individually expressed, purified on amylose resin; not shown: MBP, N-terminal, kept
B2: TEX12_(49–123), tag cleaved (domain or fragment, human, UniProt Q9BXU0 49-123, looked up)
chain: KDEALEKDLNDVSKEINLMLSTYAKLLSERAAVDASYIDEIDELFKEANAIENFLIQKREFLRQRFTVIANTLHR
notes: not shown: His-tag, N-terminal, cleaved
B3: MBP-TEX12_(49–123) (domain or fragment, human, UniProt Q9BXU0 49-123, looked up)
chain: B2 chain
notes: as for B1
B4: TEX12 (1–123), tag cleaved (natural protein, human, UniProt Q9BXU0 1-123, looked up)
chain: MMANHLVKPDNRNCKRPRELESPVPDSPQLSSLGKSDSSFSEISGLFYKDEALEKDLNDVSKEINLMLSTYAKLLSERAAVDASYIDEIDELFKEANAIENFLIQKREFLRQRFTVIANTLHR
notes: as for B2
B5: MBP–TEX12_(1–123) (natural protein, human, UniProt Q9BXU0 1-123, looked up)
chain: B4 chain
notes: Homodimer by SEC–MALS; source: E. coli Rosetta 2 (DE3), individually expressed, purified on amylose resin; not shown: MBP, N-terminal, kept
B6: His–TEX12 (1–123) (natural protein, human, UniProt Q9BXU0 1-123, looked up)
chain: B4 chain
notes: source: E. coli Rosetta 2 (DE3), co-expressed (pRSFDuet-1), in clarified lysate; not shown: His-tag, N-terminal, kept
B7: SYCE2_(57–165), tag cleaved (domain or fragment, human, UniProt Q6PIF2 57-165, looked up)
chain: GLYFSSLDSSIDILQKRAQELIENINKSRQKDHALMTNFRNSLKTKVSDLTEKLEERIYQIYNDHNKIIQEKLQEFTQKMAKISHLETELKQVCHSVETVYKDLCLQPE
notes: also called central conserved region of SYCE2; source: E. coli Rosetta 2 (DE3), co-expressed with TEX12 constructs, co-purified (Ni–NTA, amylose, TEV cleavage, Resource Q); not shown: MBP, N-terminal, cleaved

Series [1] concerns the target His–SYCE2 (1–218) (human) (UniProt Q6PIF2). In words: SEC-MALS; 100 µl at 1–5 mg ml^−1 on Superdex 200 10/300 GL; 20 mM Tris pH 8.0, 150 mM KCl, 2 mM DTT; purified complexes or purified fusion proteins.
For series [2], the target named is T1, MBP–SYCE2 (1–218). Described as above.
Series [3] concerns the molecule itself. The description is as above.
Series [4] has as its target B7. Briefly: SDS–PAGE band densitometry of the purified complex; Coomassie-stained SDS–PAGE of the co-purified, tag-cleaved complex; densitometry with IMAGEJ. Conditions: both partners purified.
The target in a further series is T2, MBP–SYCE2_(57–88). In words: pull-down; amylose pull-down after co-expression in bacteria of MBP-fusion SYCE2 constructs (bait) with His-tagged TEX12 or SYCE2 constructs; lysis in 20 mM Tris pH 8.0, 500 mM KCl, 2 mM DTT; 1 h at 4°C; maltose elution; Coomassie-stained SDS–PAGE. Conditions: partners not purified.
Series [5] deals with T1, MBP–SYCE2 (1–218). The series is described as above. Conditions: partners not purified.
Series [6] deals with the molecule itself. Briefly: AUC; sedimentation velocity of co-purified, tag-cleaved complexes; SYCE2_(57–165)–TEX12 at 57 µM, SYCE2_(57–165)–TEX12_(49–123) at 289 µM; 20 mM Tris pH 8.0, 145 mM KCl, 2 mM DTT; 30 000 r.p.m., 20°C; c(S) fit.

“His–SYCE2 (1–218) (from UniProt Q6PIF2 1-218) (natural protein)”: in series [1], the stoichiometry N came out at 4.
In the series with MBP–SYCE2 (1–218) [2], “MBP–SYCE2 (1–218) (from UniProt Q6PIF2 1-218) (natural protein)” came in with a stoichiometry N of 4.
On to B1, for which the “stoichiometry N” value in series [3] is 2.
Consider B2, for which the “stoichiometry N” value in series [4] was determined as 1.
With B3, the “stoichiometry N” value in series [3] is 2.
For the molecule B4, the “stoichiometry N” value in series [4] was 1.
Turning to B5, in series [3], the “stoichiometry N” value was determined as 2.
As to B6, the “integrated intensity of the TEX12 band relative to 57–165” value with MBP–SYCE2_(57–88) came out at 96%; in the series with MBP–SYCE2 (1–218) [5], 62%.
With B7, the binding result in series [6] was “binds”.
